Experiments:
Steinernema feltiae = experiment: In-vitro plate assay of Steinernema feltiae juvenile death after direct treatment; format: in vivo; settings: Table 23, 40 μL per well (ILEVO 20 μL), water control 3%
Method: To determine the effects of enzymes on an additional soil-dwelling nematode species (Steinernema feltiae), a NemAttack™ package containing approximately 5 million S. feltiae juveniles was purchased from ARBICO Organics. The nematodes arrived already hatched and dispersed within a powder. To prepare the nematodes for use, an aliquot of the dry nematode mixture was rehydrated in water. The liquid nematode mixture was adjusted to a concentration of 20-30 nematode juveniles per 10 μL. The free enzymes Esterase B (SEQ ID NO: 89) and Chitinase 19F (SEQ ID NO: 182) were produced as described in Example 2.
Potato dextrose agar media containing chloramphenicol and chlortetracycline was prepared and added to sterile twenty-four-well cell culture plates (1 mL per well). The plates were divided according to the pre-determined N-value for each treatment (N=12-24). […]
To quantify the treatments' effects on nematode viability, the nematodes were examined under a dissecting microscope at 20× magnification. Initial (T0) values for the number of live juveniles, number of dead juveniles and total number of juveniles were recorded immediately after preparation of each well. […] Approximately 20-22 hours post addition of juveniles, the plates were evaluated, and the number of live juveniles, dead juveniles and total number of juveniles were recorded. […]

[1] = tested on: Diamondback moth (Plutella xylostella); experiment: Diet-surface overlay (DSO) bioassay on Diamondback moth; format: in vivo
Method: (§1) Diet-surface overlay bioassays are conducted with artificial diet mixes without antibiotics in 1.5 cm^2 cell bioassay trays(s). Artificial diets are commercially available from Southland Products Inc. Diets were prepared by dispersing 0.5 mL of molten diet to each 1.5 cm^2 cell. After solidification, 0.1 mL enzyme treatments were dispersed on top of diet in each cell and the tray was gently rocked in an orbital shaker to spread the liquid uniformly over the diet surface. Trays were placed under clean airflow until the surface of each cell was uniformly dried. One or two 16-cell sections were used per treatment (the number in larvae treated was 16 or 32).
(§2) One healthy first instar larva was placed into each treatment cell, each 16-cell section was covered with a re-sealable lid and incubated at 27° C. and light-dark period of 16:8 hrs. After 7 days, and according to the species, the number of individuals in the following developmental categories was recorded.
(§3) Diamondback moth (Plutella xylostella): Dead Larva (lack of movement), Larva Stage I (≤50% relative size), Larva Stage II (100% relative size, full size), Early Pupa (light green color), Late Pupa (light-dark brown color), and Adult.
(§4) Negative/untreated controls were treated with filtered water and positive controls were treated with lethal doses of Bacillus thuringiensis subsp. Kurstaki (Btk) spores at 1000 ppm.

SCN nematodes = experiment: Nematode death after foliar spray application on strawberry leaf segments; format: in vivo, Heterodera glycines; settings: 0.6% solution of fermentation broth sprayed on strawberry leaf segments; 20 wells; water only 5%
Method: To determine whether a nematicidal enzyme can cause nematode death when sprayed as a foliar treatment, a trial was performed using chitinase 19F (SEQ ID NO: 182). The free enzyme was produced as described in Example 2. A SCN hatchery was set up as described in Example 2, except that no bleach sterilization step was performed. Six days later, the concentration of hatched nematodes was determined. Leaves from Quinault strawberry plants (Fragaria x ananassa) were cut into square sections and placed in the wells of a 24-well plate with the abaxial side up. […] Spray solutions were created with water alone and water plus fermentation broth with chitinase 19F (SEQ ID NO: 182). For the base strain control and chitinase solutions, 0.094 mL of fermentation broth was added to 15 mL of water (0.6% solution) to model a field spray application of 8 fl oz. per acre. Treatments were added to a small spray bottle and each leaf segment was sprayed approximately 3 times. After the leaves had dried, approximately 100 nematodes were added to each leaf segment. To assess the number of nematodes that were alive at the start of the experiment hours, 500 μL of sterile water was added to 4 wells of each treatment, and the leaf segment was washed and removed. The number of alive and dead nematodes were counted for each well, and the average percentage of dead nematodes were calculated for each treatment. […]

[2] = tested on: Btk resistant Diamondback moth; experiment: Diet-surface overlay (DSO) bioassay on Btk resistant Diamondback moth; format: in vivo, Plutella xylostella; settings: number of individuals, n = 32, 7 days
Method: as §1, §2, §3, §4
However, both neutral proteases reduced the number of individuals reaching adult stage.
The effect of lipase (10× enzyme rate) and free lipases were tested on a Diamondback Moth Btk resistant strain. Free Lipases from Burkholderia cepacia (Bc) and Pseudomonas fluorescens (Pf) were tested along with Lipase (SEQ ID NO: 76) and the results are shown below in Table 45.

[3] = Table 49, esterases, Diamondback moth, number of individuals of n = 32

B1: Esterase B (SEQ ID NO: 89): Bacillus subtilis Esterase (EstB without signal sequence) (protein, listed as Bacillus subtilis)
chain: ESVHNPVVLVHGISGASYNFFAIKNYLISQGWQSNKLYAIDFYDKTGNNLNNGPQLASYVDRVLKETGAKKVDIVAHSMGGANTLYYIKYLGGGNKIQNVVTLGGANGLVSSTALPGTDPNQKILYTSIYSLNDQIVINSLSRLQGARNIQLYGIGHIGLLSNSQVNGYIKEGLNGGGLNTN
modifications: Esterase (EstB H191 without signal sequence)
- Difference in Percent Death of Nematodes for 0 to 20 Hours (Steinernema feltiae): significantly increased the difference in percentage of S. feltiae juveniles that died
- Difference in Percent Death of Nematodes for 0 to 20 Hours (Steinernema feltiae; listed as Esterase B(SEQ ID NO: 89)): 33%
- Adult [1, 3]: 0
- Early Pupa [1, 3]: 4
- Larva Stage I [1, 3]: 3
- Larva Stage II [1, 3]: 8
- Late Pupa [1, 3]: 17
- Dead Larva ([1]; Table 49, esterases, Diamondback moth, number of individuals of n = 32, DSO bioassay, dose per treatment in U/mL Diet): 0
- individuals with delayed larva-pupa development ([1]; text to Table 49, esterases, n = 32): 47%
- individuals at larva stage ([1]; text to Table 49: 34% of which were at larva stage): 34%

B2: Chitinase 19F (SEQ ID NO: 182): Streptomyces coelicolor Chitinase F (Chi19F) (protein)
chain: ASCSSYHAWSADANYNTGDIVRYTDGKAYIAEHANPGYDPLISTWYWDPYACDGGSQTPVGNFVVSEAQFNQMFPGRNSFYTYSGLTAALSAYPGFANTGSDTTKKQEAAAFLANVSHETGGLVYIVEQNTANYPHYCDWNQPYGCPAGQAAYYGRGPIQLSWNFNYKAAGDALGIDLLGNPWLVQNDAAVAWKTGLWYWNTQSGPGTMTPHNAMVNGAGFGQTIRSINGSLECDGKNPAQVQSRVTKYQQFAQILGVSPGGNLYC
modifications: Chitinase F (Chi19F); Streptomyces coelicolor
- Average percentage of dead nematodes at 24 hours (SCN nematodes): increased significantly above the control treatments
- Dead Larva ([2]; Table 47, chitinases, rate in mU/mL diet column): 2
- Adult ([2]; Table 47): 1
- Early Pupa ([2]; Table 47): 4
- Larva Stage I ([2]; Table 47): 2
- Larva Stage II ([2]; Table 47): 1
- Late Pupa ([2]; Table 47): 22

From US20260231954A1, “PESTICIDAL ENZYMES FOR USE ON NEMATODES, INSECTS, AND MOLLUSKS” (priority 2023, published 2026)
